Consider 15 molecules from patent US20030229005A1 (BIOZYME, published 2003).

Holding throughout (experiment): cell-based or functional assay
The target in one assay is T1, human Gelatinase-A (human, UniProt P08253 110-660, limits assumed).
T1 sequence (looked up): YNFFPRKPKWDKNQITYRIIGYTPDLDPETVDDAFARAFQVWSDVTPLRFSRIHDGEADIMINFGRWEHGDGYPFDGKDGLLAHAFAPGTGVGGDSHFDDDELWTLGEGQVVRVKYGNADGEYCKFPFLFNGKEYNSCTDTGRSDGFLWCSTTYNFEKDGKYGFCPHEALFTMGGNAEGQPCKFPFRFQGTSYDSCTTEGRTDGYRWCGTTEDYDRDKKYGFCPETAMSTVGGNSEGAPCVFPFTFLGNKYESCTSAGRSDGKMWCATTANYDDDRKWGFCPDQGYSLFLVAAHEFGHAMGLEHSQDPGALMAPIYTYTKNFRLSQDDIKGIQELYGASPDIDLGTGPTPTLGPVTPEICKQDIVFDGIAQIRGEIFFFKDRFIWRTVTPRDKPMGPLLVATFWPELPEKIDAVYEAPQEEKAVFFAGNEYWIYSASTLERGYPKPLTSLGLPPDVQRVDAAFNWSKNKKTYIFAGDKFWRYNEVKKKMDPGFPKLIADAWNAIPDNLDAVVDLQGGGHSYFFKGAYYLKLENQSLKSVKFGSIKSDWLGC

In the next assay the target is gelatinase B (UniProt P14780 107-707, limits assumed).
Chain of gelatinase B (P14780 107-707 limits assumed): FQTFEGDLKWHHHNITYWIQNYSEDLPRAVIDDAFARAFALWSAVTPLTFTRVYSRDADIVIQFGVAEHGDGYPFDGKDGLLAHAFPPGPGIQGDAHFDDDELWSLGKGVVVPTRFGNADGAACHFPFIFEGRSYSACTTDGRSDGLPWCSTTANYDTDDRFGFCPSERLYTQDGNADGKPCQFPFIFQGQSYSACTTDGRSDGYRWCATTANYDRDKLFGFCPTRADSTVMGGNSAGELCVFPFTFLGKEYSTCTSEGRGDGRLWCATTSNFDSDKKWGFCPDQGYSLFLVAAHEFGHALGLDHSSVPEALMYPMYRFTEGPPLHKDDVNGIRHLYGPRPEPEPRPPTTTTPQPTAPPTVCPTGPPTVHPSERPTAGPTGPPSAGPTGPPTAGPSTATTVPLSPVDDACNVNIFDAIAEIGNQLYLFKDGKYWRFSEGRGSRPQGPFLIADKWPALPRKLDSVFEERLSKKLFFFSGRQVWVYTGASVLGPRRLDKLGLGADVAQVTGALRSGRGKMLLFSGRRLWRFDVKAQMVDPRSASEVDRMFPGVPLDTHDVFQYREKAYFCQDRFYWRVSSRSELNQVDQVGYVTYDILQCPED
The target of another assay is T2, collagenase 1 (UniProt P03956 100-469, limits assumed).
T2 sequence (looked up): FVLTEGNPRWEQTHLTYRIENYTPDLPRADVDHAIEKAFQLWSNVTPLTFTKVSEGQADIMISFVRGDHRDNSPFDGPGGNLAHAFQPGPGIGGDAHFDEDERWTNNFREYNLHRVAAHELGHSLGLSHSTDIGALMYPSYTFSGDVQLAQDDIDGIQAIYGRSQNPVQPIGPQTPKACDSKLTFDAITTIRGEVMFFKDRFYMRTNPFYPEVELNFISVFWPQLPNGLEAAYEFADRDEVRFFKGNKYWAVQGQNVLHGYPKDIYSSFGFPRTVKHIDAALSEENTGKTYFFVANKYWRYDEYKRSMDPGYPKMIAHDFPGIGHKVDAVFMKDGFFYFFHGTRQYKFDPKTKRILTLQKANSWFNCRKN

The target in the next assay is stromelysin 1 (UniProt P08254 100-477, limits assumed).
Chain of stromelysin 1 (P08254 100-477 limits assumed): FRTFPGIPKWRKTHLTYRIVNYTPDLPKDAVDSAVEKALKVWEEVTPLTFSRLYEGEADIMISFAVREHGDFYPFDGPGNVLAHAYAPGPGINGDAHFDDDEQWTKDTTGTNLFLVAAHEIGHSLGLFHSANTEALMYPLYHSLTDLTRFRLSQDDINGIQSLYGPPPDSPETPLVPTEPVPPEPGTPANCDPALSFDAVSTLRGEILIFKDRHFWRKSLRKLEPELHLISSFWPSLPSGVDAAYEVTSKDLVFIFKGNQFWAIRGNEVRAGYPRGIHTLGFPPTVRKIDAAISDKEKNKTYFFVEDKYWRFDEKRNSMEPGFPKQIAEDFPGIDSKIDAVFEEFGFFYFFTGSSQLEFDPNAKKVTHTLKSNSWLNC

*1 amine or outer side, *2 acyl side, *3 side chain or, on linkers, in order; H or OH if unused. [ ]: non-standard residue; d: D form. The star is where a group is joined. Dnp = O=[N+]([O-])c1ccc(*)c([N+](=O)[O-])c1; C(Me) = CSC[C@H](N[*:1])C(=O)[*:2]

B1: Dnp-VC(Me)PKGITSC(Me)VFR-NH2 (peptide)
peptide: Dnp-V[C(Me)]PKGITS[C(Me)]VFR-NH2
SMILES: CC[C@H](C)[C@H](NC(=O)CNC(=O)[C@H](CCCCN)NC(=O)[C@@H]1CCCN1C(=O)[C@H](CSC)NC(=O)[C@@H](Nc1ccc([N+](=O)[O-])cc1[N+](=O)[O-])C(C)C)C(=O)N[C@H](C(=O)N[C@@H](CO)C(=O)N[C@@H](CSC)C(=O)N[C@H](C(=O)N[C@@H](Cc1ccccc1)C(=O)N[C@@H](CCCNC(=N)N)C(N)=O)C(C)C)[C@@H](C)O
Turning to B1, the “Selectivity v. Coll-3” value with human Gelatinase-A is 7 unitless; with gelatinase B it was 1 unitless; with collagenase 1, 215 unitless; in the assay with stromelysin 1 it was 835 unitless.

B2: Dnp-GPLPFRGC(Me)-NH2 (peptide)
peptide: Dnp-GPLPFRG[C(Me)]-NH2
SMILES: CSC[C@H](NC(=O)CNC(=O)[C@H](CCCNC(=N)N)NC(=O)[C@H](Cc1ccccc1)NC(=O)[C@@H]1CCCN1C(=O)[C@H](CC(C)C)NC(=O)[C@@H]1CCCN1C(=O)CNc1ccc([N+](=O)[O-])cc1[N+](=O)[O-])C(N)=O
Regarding B2, the “Selectivity v. Coll-3” value with human Gelatinase-A was found to be 16 unitless; with gelatinase B, 8 unitless; with collagenase 1 it was 429 unitless; in the assay with stromelysin 1, 814 unitless.

B3: Dnp-GPSELKG-NH2 (peptide)
peptide: Dnp-GPSELKG-NH2
SMILES: CC(C)C[C@H](NC(=O)[C@H](CCC(=O)O)NC(=O)[C@H](CO)NC(=O)[C@@H]1CCCN1C(=O)CNc1ccc([N+](=O)[O-])cc1[N+](=O)[O-])C(=O)N[C@@H](CCCCN)C(=O)NCC(N)=O
For B3, the “Selectivity v. Coll-3” value with human Gelatinase-A amounted to 7 unitless; in the assay with gelatinase B it was 4 unitless; with collagenase 1, 470 unitless; with stromelysin 1 it was 831 unitless.

B4: Dnp-GPSPFHVC(Me)-NH2 (peptide)
peptide: Dnp-GPSPFHV[C(Me)]-NH2
SMILES: CSC[C@H](NC(=O)[C@@H](NC(=O)[C@H](Cc1c[nH]cn1)NC(=O)[C@H](Cc1ccccc1)NC(=O)[C@@H]1CCCN1C(=O)[C@H](CO)NC(=O)[C@@H]1CCCN1C(=O)CNc1ccc([N+](=O)[O-])cc1[N+](=O)[O-])C(C)C)C(N)=O
In the case of B4, the “Selectivity v. Coll-3” value with human Gelatinase-A came to 18 unitless; with gelatinase B, 54 unitless; with collagenase 1 it was 1570 unitless; in the assay with stromelysin 1 it was 2100 unitless.

B5: Dnp-GPLPFHVC(Me)-NH2 (peptide)
peptide: Dnp-GPLPFHV[C(Me)]-NH2
SMILES: CSC[C@H](NC(=O)[C@@H](NC(=O)[C@H](Cc1c[nH]cn1)NC(=O)[C@H](Cc1ccccc1)NC(=O)[C@@H]1CCCN1C(=O)[C@H](CC(C)C)NC(=O)[C@@H]1CCCN1C(=O)CNc1ccc([N+](=O)[O-])cc1[N+](=O)[O-])C(C)C)C(N)=O
On to B5, for which the “Selectivity v. Coll-3” value with human Gelatinase-A was found to be 20 unitless; with gelatinase B, 18 unitless; with collagenase 1 it was 2950 unitless; in the assay with stromelysin 1, 619 unitless.

B6: Dnp-PHPFRG-NH2 (peptide)
peptide: Dnp-PHPFRG-NH2
SMILES: N=C(N)NCCC[C@H](NC(=O)[C@H](Cc1ccccc1)NC(=O)[C@@H]1CCCN1C(=O)[C@H](Cc1c[nH]cn1)NC(=O)[C@@H]1CCCN1c1ccc([N+](=O)[O-])cc1[N+](=O)[O-])C(=O)NCC(N)=O
For B6, the “Selectivity v. Coll-3” value was 28 unitless with human Gelatinase-A, 4 unitless with gelatinase B, 2230 unitless with collagenase 1 and 1050 unitless in the assay with stromelysin 1.

B7: Dnp-GPSPLHGC(Me)-NH2 (peptide)
peptide: Dnp-GPSPLHG[C(Me)]-NH2
SMILES: CSC[C@H](NC(=O)CNC(=O)[C@H](Cc1c[nH]cn1)NC(=O)[C@H](CC(C)C)NC(=O)[C@@H]1CCCN1C(=O)[C@H](CO)NC(=O)[C@@H]1CCCN1C(=O)CNc1ccc([N+](=O)[O-])cc1[N+](=O)[O-])C(N)=O
With B7, the “Selectivity v. Coll-3” value is 8 unitless with human Gelatinase-A, 7 unitless in the assay with gelatinase B, 274 unitless in the assay with collagenase 1 and 2990 unitless in the assay with stromelysin 1.

B8: Dnp-GPAPLHGC(Me)-NH2 (peptide)
peptide: Dnp-GPAPLHG[C(Me)]-NH2
SMILES: CSC[C@H](NC(=O)CNC(=O)[C@H](Cc1c[nH]cn1)NC(=O)[C@H](CC(C)C)NC(=O)[C@@H]1CCCN1C(=O)[C@H](C)NC(=O)[C@@H]1CCCN1C(=O)CNc1ccc([N+](=O)[O-])cc1[N+](=O)[O-])C(N)=O
B8: the “Selectivity v. Coll-3” value with human Gelatinase-A was 12 unitless; with gelatinase B it was 10 unitless; with collagenase 1, 473 unitless; with stromelysin 1, 620 unitless.

B9: Dnp-GPLPFRVC(Me)-NH2 (peptide)
peptide: Dnp-GPLPFRV[C(Me)]-NH2
SMILES: CSC[C@H](NC(=O)[C@@H](NC(=O)[C@H](CCCNC(=N)N)NC(=O)[C@H](Cc1ccccc1)NC(=O)[C@@H]1CCCN1C(=O)[C@H](CC(C)C)NC(=O)[C@@H]1CCCN1C(=O)CNc1ccc([N+](=O)[O-])cc1[N+](=O)[O-])C(C)C)C(N)=O
For B9, the “Selectivity v. Coll-3” value came out at 36 unitless with human Gelatinase-A, 21 unitless with gelatinase B, 550 unitless in the assay with collagenase 1 and 332 unitless with stromelysin 1.

B10: Dnp-GPAPFRVC(Me)-NH2 (peptide)
peptide: Dnp-GPAPFRV[C(Me)]-NH2
SMILES: CSC[C@H](NC(=O)[C@@H](NC(=O)[C@H](CCCNC(=N)N)NC(=O)[C@H](Cc1ccccc1)NC(=O)[C@@H]1CCCN1C(=O)[C@H](C)NC(=O)[C@@H]1CCCN1C(=O)CNc1ccc([N+](=O)[O-])cc1[N+](=O)[O-])C(C)C)C(N)=O
For the molecule B10, the “Selectivity v. Coll-3” value amounted to 37 unitless with human Gelatinase-A, 82 unitless with gelatinase B, 5790 unitless in the assay with collagenase 1 and 448 unitless with stromelysin 1.

B11: Dnp-GPLGFRVC(Me)-NH2 (peptide)
peptide: Dnp-GPLGFRV[C(Me)]-NH2
SMILES: CSC[C@H](NC(=O)[C@@H](NC(=O)[C@H](CCCNC(=N)N)NC(=O)[C@H](Cc1ccccc1)NC(=O)CNC(=O)[C@H](CC(C)C)NC(=O)[C@@H]1CCCN1C(=O)CNc1ccc([N+](=O)[O-])cc1[N+](=O)[O-])C(C)C)C(N)=O
B11: the “Selectivity v. Coll-3” value with human Gelatinase-A turned out to be 15 unitless; in the assay with gelatinase B, 20 unitless; with collagenase 1, 17300 unitless; in the assay with stromelysin 1, 3970 unitless.

B12: Dnp-GPLGLHGC(Me)-NH2 (peptide)
peptide: Dnp-GPLGLHG[C(Me)]-NH2
SMILES: CSC[C@H](NC(=O)CNC(=O)[C@H](Cc1c[nH]cn1)NC(=O)[C@H](CC(C)C)NC(=O)CNC(=O)[C@H](CC(C)C)NC(=O)[C@@H]1CCCN1C(=O)CNc1ccc([N+](=O)[O-])cc1[N+](=O)[O-])C(N)=O
With B12, the “Selectivity v. Coll-3” value in the assay with human Gelatinase-A was 16 unitless; with gelatinase B it was 5 unitless; with collagenase 1, 660 unitless; with stromelysin 1, 10400 unitless.

B13: Dnp-GPSPFRGC(Me)-NH2 (peptide)
peptide: Dnp-GPSPFRG[C(Me)]-NH2
SMILES: CSC[C@H](NC(=O)CNC(=O)[C@H](CCCNC(=N)N)NC(=O)[C@H](Cc1ccccc1)NC(=O)[C@@H]1CCCN1C(=O)[C@H](CO)NC(=O)[C@@H]1CCCN1C(=O)CNc1ccc([N+](=O)[O-])cc1[N+](=O)[O-])C(N)=O
Turning to B13, the “Selectivity v. Coll-3” value with human Gelatinase-A came out at 10 unitless; in the assay with gelatinase B, 13 unitless; with collagenase 1 it was 2430 unitless; with stromelysin 1, 1390 unitless.

B14: Dnp-GPLGFRGC(Me)-NH2 (peptide)
peptide: Dnp-GPLGFRG[C(Me)]-NH2
SMILES: CSC[C@H](NC(=O)CNC(=O)[C@H](CCCNC(=N)N)NC(=O)[C@H](Cc1ccccc1)NC(=O)CNC(=O)[C@H](CC(C)C)NC(=O)[C@@H]1CCCN1C(=O)CNc1ccc([N+](=O)[O-])cc1[N+](=O)[O-])C(N)=O
For the molecule B14, the “Selectivity v. Coll-3” value with human Gelatinase-A was determined as 10 unitless; with gelatinase B it was 7 unitless; with collagenase 1, 10600 unitless; in the assay with stromelysin 1, 7290 unitless.

B15: Dnp-GPAPFRGC(Me)-NH2 (peptide)
peptide: Dnp-GPAPFRG[C(Me)]-NH2
SMILES: CSC[C@H](NC(=O)CNC(=O)[C@H](CCCNC(=N)N)NC(=O)[C@H](Cc1ccccc1)NC(=O)[C@@H]1CCCN1C(=O)[C@H](C)NC(=O)[C@@H]1CCCN1C(=O)CNc1ccc([N+](=O)[O-])cc1[N+](=O)[O-])C(N)=O
As to B15, the “Selectivity v. Coll-3” value in the assay with human Gelatinase-A turned out to be 9 unitless; in the assay with gelatinase B, 14 unitless; with collagenase 1, 4420 unitless; with stromelysin 1, 488 unitless.
